Data: paper PMC7058304 (PLoS ONE, 2020)

Legend:
Details in all cases: both partners purified
[1] = biological target: T1, Recombinant purified human PD-1 protein, residues Leu25-Thr168, with a C-terminal 6-His tag (human, UniProt Q15116); assay: SPR; Biacore 8K, 3D-hydrogel chips (average of CM5 and CMD-200M); mAbs captured on goat anti-human IgG Fc; PD-1 His-tagged monomer analyte 0.4-100 nM; 25 C; HBS-EP+ pH 7.4; 1:1 Langmuir fit with mass transport; apparent
T1 construct: programmed cell death protein 1 (PD-1), human, residues Leu25-Thr168; monomer; the results call it wild-type or full length PD-1 against the P35-Q167 fragment; also called PD-1-His; PD-1 His-tagged monomer; source: bought: R&D Systems; not shown: His6, C-terminal, kept

[2] = biological target: T1, Recombinant purified human PD-1 …; assay: SPR; Biacore 8K, flat chips (average of C1 and CMD-P); mAbs captured on goat anti-human IgG Fc; PD-1 His-tagged monomer analyte 0.4-100 nM; 25 C; HBS-EP+ pH 7.4; 1:1 Langmuir fit with mass transport; apparent
[3] = biological target: T2, biotinylated His-tagged PD-1 (Homo sapiens, UniProt Q15116, biotin); assay: MSD solution equilibrium titration; 100 pM biotinylated His-tagged PD-1 titrated with mAb (top 100, 50 or 10 nM binding sites), 18 h at room temperature; free antigen captured on mAb-coated MSD plates; relative KD
T2 construct: PD-1, His-tagged, biotinylated, used in the MSD experiments; probably the R&D Systems Leu25-Thr168 protein after biotinylation

[4] = biological target: T1, Recombinant purified human PD-1 …; assay: SPR; Carterra LSA, CMD-P (flat) chip; mAbs captured on goat anti-human IgG Fc in a 384-spot array; PD-1-His analyte 0.5-1000 nM, 5 min association, 20 min dissociation; HBS-ET + 0.5 mg/ml BSA; 1:1 Langmuir fit; mean of spots; apparent
[5] = biological target: T3, Recombinant purified human PD-1 protein, residues Leu25-Thr168, with a C-terminal 6-His tag (Homo sapiens, UniProt Q15116); assay: SPR; Biacore 8K, CMD-200M chip (3D-hydrogel); mAb captured on amine-coupled goat anti-human IgG Fc, PD-1-His monomer as analyte (100 nM top, 3-fold dilutions), 1200 s dissociation; 25 C, HBS-EP+ pH 7.4; 1:1 Langmuir fit, apparent constants
T3 construct: programmed cell death protein 1 (PD-1), human, residues Leu25-Thr168; also called programmed cell death protein 1; PD-1-His monomer; source: bought: R&D Systems (catalog# 8986-PD, lot# DDJM0417041)
T3 sequence (Q15116 25-168): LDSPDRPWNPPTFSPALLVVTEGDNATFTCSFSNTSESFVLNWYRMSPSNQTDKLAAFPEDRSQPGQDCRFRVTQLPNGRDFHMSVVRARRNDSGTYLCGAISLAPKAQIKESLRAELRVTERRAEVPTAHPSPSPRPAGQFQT

[6] = biological target: T3, Recombinant purified human PD-1 …; assay: SPR; Biacore 8K, CMD-P chip (flat); mAb captured on amine-coupled goat anti-human IgG Fc, PD-1-His monomer as analyte (100 nM top, 3-fold dilutions), 1200 s dissociation; 25 C, HBS-EP+ pH 7.4; 1:1 Langmuir fit, apparent constants
[7] = biological target: T3, Recombinant purified human PD-1 …; assay: SPR; Biacore 8K, C1 chip (flat); mAb captured on amine-coupled goat anti-human IgG Fc, PD-1-His monomer as analyte (100 nM top, 3-fold dilutions), 1200 s dissociation; 25 C, HBS-EP+ pH 7.4; 1:1 Langmuir fit, apparent constants; 8 mAbs measured in two independent experiments
[8] = biological target: T3, Recombinant purified human PD-1 …; assay: SPR; Biacore 8K, CM5 chip (3D-hydrogel); mAb captured on amine-coupled goat anti-human IgG Fc, PD-1-His monomer as analyte (100 nM top, 3-fold dilutions), 1200 s dissociation; 25 C, HBS-EP+ pH 7.4; 1:1 Langmuir fit, apparent constants
[9] = biological target: T3, Recombinant purified human PD-1 …; assay: SPR; Biacore 8K, C1 chip (flat); mAb captured on amine-coupled goat anti-human IgG Fc, PD-1-His monomer as analyte (100 nM top, 3-fold dilutions), 1200 s dissociation; 25 C, HBS-EP+ pH 7.4; 1:1 Langmuir fit, apparent constants; 8 mAbs measured in two independent experiments; remark: listed apart in the source
[10] = biological target: T4, Recombinant purified human PD-1 protein, residues Leu25-Thr168, with a C-terminal 6-His tag (Homo sapiens, UniProt Q15116); assay: SPR; Carterra LSA, CMD-P (flat) chip; mAb captured by amine-coupled goat anti-human IgG Fc, PD-1-His as analyte 0.5-1000 nM, 5 min association, 20 min dissociation; run buffer with 0.5 mg/ml BSA; global 1:1 Langmuir fit; mean (stdev) of 8-12 spots per mAb; KD deduced from kd/ka; apparent
T4 construct: human PD-1 (programmed cell death protein 1), residues Leu25-Thr168; monomer; used as analyte in SPR and as titrant in KinExA; also called PD-1-His; PD-1-His monomer; source: bought: R&D Systems (catalog# 8986-PD, lot# DDJM0417041); not shown: His6, C-terminal, kept
T4 sequence (Q15116 25-168): as above

[11] = biological target: T4, Recombinant purified human PD-1 …; assay: KinExA; 'Kinetics, Direct' method, solution phase: mAb mixed with PD-1, free mAb probed repeatedly pre-equilibrium on PD-1-coupled PMMA beads, Alexa647 goat anti-human IgG detection; ka fitted (best fit, 95% CI), kd calculated from ka and KD

T1 sequence (Q15116 25-168): as above
T2 sequence (Q15116 whole entry, looked up, tested part not stated): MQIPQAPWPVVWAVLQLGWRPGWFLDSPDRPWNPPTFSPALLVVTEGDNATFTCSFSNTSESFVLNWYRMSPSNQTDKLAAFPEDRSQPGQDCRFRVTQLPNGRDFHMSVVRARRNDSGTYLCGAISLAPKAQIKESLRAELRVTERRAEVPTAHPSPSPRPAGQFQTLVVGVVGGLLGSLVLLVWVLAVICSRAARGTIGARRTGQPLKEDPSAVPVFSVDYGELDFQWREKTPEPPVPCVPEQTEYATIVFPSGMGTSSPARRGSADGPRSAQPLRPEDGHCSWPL

Row | Kd [1] | Kd [2] | Kd [3] | Kd [4] | koff [4] | kon [4] | Kd [10] | koff [10] | kon [10] | koff [11] | kon [11] | Binder | other results
1 | < 0.3 nM | < 0.13 nM | 0.02 nM | < 0.17 nM | < 4.3e-05 s⁻¹ | 250000 M⁻¹ s⁻¹ | – | – | – | – | – | mAb19 (analog of sasanlimab) (antibody, V domains shown, VH; IgG4 heavy-chain constant region with stabilizing 226CPPC hinge; VL; IgG4 analog; source: HEK293 suspension cells, cotransfected, purified (Protein A)) VH: QVQLVQSGAEVKKPGASVKVSCKASGYTFTSYWINWVRQAPGQGLEWMGNIYPGSSLTNYNEKFKNRVTMTRDTSTSTVYMELSSLRSEDTAVYYCARLSTGTFAYWGQGTLVTVSS VL: DIVMTQSPDSLAVSLGERATINCKSSQSLWDSGNQKNFLTWYQQKPGQPPKLLIYWTSYRESGVPDRFSGSGSGTDFTLTISSLQAEDVAVYYCQNDYFYPHTFGGGTKVEIK | –
2 | < 0.21 nM | < 0.12 nM | 0.028 nM | < 0.13 nM | < 4.3e-05 s⁻¹ | 330000 M⁻¹ s⁻¹ | – | – | – | – | – | mAb21 (analog of sintilimab) (antibody, V domains shown, VH; IgG4 heavy-chain constant region with stabilizing 226CPPC hinge; VL; IgG4 analog; source: HEK293 suspension cells, cotransfected, purified (Protein A)) VH: QVQLVQSGAEVKKPGSSVKVSCKASGGTFSSYAISWVRQAPGQGLEWMGLIIPMFDTAGYAQKFQGRVAITVDESTSTAYMELSSLRSEDTAVYYCARAEHSSTGTFDYWGQGTLVTVSS VL: DIQMTQSPSSVSASVGDRVTITCRASQGISSWLAWYQQKPGKAPKLLISAASSLQSGVPSRFSGSGSGTDFTLTISSLQPEDFATYYCQQANHLPFTFGGGTKVEIK | –
3 | – | – | – | – | – | – | 1.52 nM | 0.000297 s⁻¹ | 195000 M⁻¹ s⁻¹ | 0.00011 s⁻¹ | 502000 M⁻¹ s⁻¹ | mAb23 (analog of cemiplimab) (antibody, V domains shown, VH; IgG4 heavy-chain constant region with a stabilizing 226CPPC hinge modification; IgG4; isotype-matched analog made from published variable regions, not the clinical molecule; source: HEK293 suspension cells, cotransfected, purified (Protein A)) VH: EVQLLESGGVLVQPGGSLRLSCAASGFTFSNFGMTWVRQAPGKGLEWVSGISGGGRDTYFADSVKGRFTISRDNSKNTLYLQMNSLKGEDTAVYYCVKWGNIYFDYWGQGTLVTVSS VL: DIQMTQSPSSLSASVGDSITITCRASLSINTFLNWYQQKPGKAPNLLIYAASSLHGGVPSRFSGSGSGTDFTLTIRTLQPEDFATYYCQQSSNTPFTFGPGTVVDFR | –
4 | 4.5 nM | 2.4 nM | 0.47 nM | 4 nM | 0.00073 s⁻¹ | 180000 M⁻¹ s⁻¹ | – | – | – | – | – | mAb17 (analog of camrelizumab) (antibody, V domains shown, VH; IgG4 heavy-chain constant region with stabilizing 226CPPC hinge; VL; IgG4 analog; source: HEK293 suspension cells, cotransfected, purified (Protein A)) VH: EVQLVESGGGLVQPGGSLRLSCAASGFTFSSYMMSWVRQAPGKGLEWVATISGGGANTYYPDSVKGRFTISRDNAKNSLYLQMNSLRAEDTAVYYCARQLYYFDYWGQGTTVTVSS VL: DIQMTQSPSSLSASVGDRVTITCLASQTIGTWLTWYQQKPGKAPKLLIYTATSLADGVPSRFSGSGSGTDFTLTISSLQPEDFATYYCQQVYSIPWTFGGGTKVEIK | –

More lines, now with the values behind:

Row | Binder | Kd [1] | Kd [2] | Kd [3] | Kd [4] | koff [4] | kon [4] | Kd [10] | koff [10] | kon [10] | koff [11] | kon [11] | other results
5 | mAb04 (analog of retifanlimab) (antibody, V domains shown, VH; IgG4 heavy-chain constant region with stabilizing 226CPPC hinge; VL; IgG4 analog; source: HEK293 suspension cells, cotransfected, purified (Protein A)) VH: QVQLVQSGAEVKKPGASVKVSCKASGYSFTSYWMNWVRQAPGQGLEWIGVIHPSDSETWLDQKFKDRVTITVDKSTSTAYMELSSLRSEDTAVYYCAREHYGTSPFAYWGQGTLVTVSS VL: EIVLTQSPATLSLSPGERATLSCRASESVDNYGMSFMNWFQQKPGQPPKLLIHAASNQGSGVPSRFSGSGSGTDFTLTISSLEPEDFAVYFCQQSKEVPYTFGGGTKVEIK | 0.65 nM | 0.35 nM | 0.056 nM | 0.7 nM | 0.00039 s⁻¹ | 580000 M⁻¹ s⁻¹ | – | – | – | – | – | –
6 | mAb04 (antibody, V domains shown, IgG4; also called analog of retifanlimab; retifan; source: HEK293 suspension cells, cotransfected, purified (Protein A)) VH: QVQLVQSGAEVKKPGASVKVSCKASGYSFTSYWMNWVRQAPGQGLEWIGVIHPSDSETWLDQKFKDRVTITVDKSTSTAYMELSSLRSEDTAVYYCAREHYGTSPFAYWGQGTLVTVSS VL: EIVLTQSPATLSLSPGERATLSCRASESVDNYGMSFMNWFQQKPGQPPKLLIHAASNQGSGVPSRFSGSGSGTDFTLTISSLEPEDFAVYFCQQSKEVPYTFGGGTKVEIK | – | – | – | – | – | – | – | – | – | – | – | Kd [5]: 0.582 nM; koff [5]: 0.000253 s⁻¹; kon [5]: 435000 M⁻¹ s⁻¹; Kd [6]: 0.387 nM; koff [6]: 0.000235 s⁻¹; kon [6]: 608000 M⁻¹ s⁻¹; Kd [7]: 0.297 nM; koff [7]: 0.000277 s⁻¹; kon [7]: 933000 M⁻¹ s⁻¹; Kd [8]: 0.717 nM; koff [8]: 0.000235 s⁻¹; kon [8]: 328000 M⁻¹ s⁻¹; Kd [9]: 0.307 nM; koff [9]: 0.000269 s⁻¹; kon [9]: 877000 M⁻¹ s⁻¹
7 | mAb03 (antibody, V domains shown, IgG4; also called analog of tislelizumab; tisle; source: HEK293 suspension cells, cotransfected, purified (Protein A)) VH: QVQLQESGPGLVKPSETLSLTCTVSGFSLTSYGVHWIRQPPGKGLEWIGVIYADGSTNYNPSLKSRVTISKDTSKNQVSLKLSSVTAADTAVYYCARAYGNYWYIDVWGQGTTVTVSS VL: DIVMTQSPDSLAVSLGERATINCKSSESVSNDVAWYQQKPGQPPKLLINYAFHRFTGVPDRFSGSGYGTDFTLTISSLQAEDVAVYYCHQAYSSPYTFGQGTKLEIK | – | – | – | – | – | – | – | – | – | – | – | Kd [5]: 0.24 nM; koff [5]: 6.16e-05 s⁻¹; kon [5]: 257000 M⁻¹ s⁻¹; Kd [6]: 0.134 nM; koff [6]: 5.77e-05 s⁻¹; kon [6]: 432000 M⁻¹ s⁻¹; Kd [7]: 0.128 nM; koff [7]: 8.72e-05 s⁻¹; kon [7]: 682000 M⁻¹ s⁻¹; Kd [8]: 0.277 nM; koff [8]: 6.03e-05 s⁻¹; kon [8]: 218000 M⁻¹ s⁻¹; Kd [9]: 0.119 nM; koff [9]: 7.54e-05 s⁻¹; kon [9]: 636000 M⁻¹ s⁻¹
8 | mAb03 (analog of tislelizumab) (antibody, V domains shown, VH; IgG4 heavy-chain constant region with a stabilizing 226CPPC hinge modification; IgG4; isotype-matched analog made from published variable regions, not the clinical molecule; source: HEK293 suspension cells, cotransfected, purified (Protein A)) VH: QVQLQESGPGLVKPSETLSLTCTVSGFSLTSYGVHWIRQPPGKGLEWIGVIYADGSTNYNPSLKSRVTISKDTSKNQVSLKLSSVTAADTAVYYCARAYGNYWYIDVWGQGTTVTVSS VL: DIVMTQSPDSLAVSLGERATINCKSSESVSNDVAWYQQKPGQPPKLLINYAFHRFTGVPDRFSGSGYGTDFTLTISSLQAEDVAVYYCHQAYSSPYTFGQGTKLEIK | – | – | – | – | – | – | < 0.1 nM | < 4.27e-05 s⁻¹ | 432000 M⁻¹ s⁻¹ | 6.82e-05 s⁻¹ | 1.8e+06 M⁻¹ s⁻¹ | –
9 | mAb16 (analog of dostarlimab) (antibody, V domains shown, VH; IgG4 heavy-chain constant region with a stabilizing 226CPPC hinge modification; IgG4; isotype-matched analog made from published variable regions, not the clinical molecule; source: HEK293 suspension cells, cotransfected, purified (Protein A)) VH: EVQLLESGGGLVQPGGSLRLSCAASGFTFSSYDMSWVRQAPGKGLEWVSTISGGGSYTYYQDSVKGRFTISRDNSKNTLYLQMNSLRAEDTAVYYCASPYYAMDYWGQGTTVTVSS VL: DIQLTQSPSFLSAYVGDRVTITCKASQDVGTAVAWYQQKPGKAPKLLIYWASTLHTGVPSRFSGSGSGTEFTLTISSLQPEDFATYYCQHYSSYPWTFGQGTKLEIK | – | – | – | – | – | – | 1.67 nM | 0.000421 s⁻¹ | 252000 M⁻¹ s⁻¹ | 0.00013 s⁻¹ | 639000 M⁻¹ s⁻¹ | –
